Experimental findings from US11098105 (Zymeworks, dated 2021) are described below.

The target of one assay is Human C1q (human, UniProt P02745 23-245; P02746 28-253; P02747 29-245). As to the kind of experiment: cell-based or functional assay.
Assay [1] has as its target T1, FcγRIIb (UniProt P31994 46-217).
T1 construct: also called 2b; CD32b
T1 sequence (looked up): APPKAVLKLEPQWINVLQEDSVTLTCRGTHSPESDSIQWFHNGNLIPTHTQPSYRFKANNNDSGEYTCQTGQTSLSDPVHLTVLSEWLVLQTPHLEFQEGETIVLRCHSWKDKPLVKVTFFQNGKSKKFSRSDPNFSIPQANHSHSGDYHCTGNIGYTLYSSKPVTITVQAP
The experiment in a line: SPR, antibody captured by goat anti-IgG, FcγR injected, equilibrium fit. (In general: SPR reads the build-up and loss of mass on a sensor chip optically.)
Procedure: (§1) Affinity of FcgR to antibody Fc was measured by SPR using a ProteOn XPR36 at 25° C. with PBS containing 3.4 mM EDTA, and 0.05% Tween 20 at pH 7.4 as the running buffer. […] 40 μg/mL of purified rituximab-based antibodies were indirectly captured by injecting at 25 μL/min for 240s (resulting in approx. 500RUs capture) in the ligand direction, following a buffer injection to establish a stable baseline in the analyte direction. FcγRs were subsequently injected at 50 μL/min for 120s with a 180s dissociation phase to obtain a set of binding sensorgrams. Resultant Kd (affinity) values were determined from double-referenced sensorgrams using the Equilibrium Fit model in the Proteon Manager software. Reported values as the mean of two or three independent runs.

Assay [2] addresses T2, FcγRIIaR (UniProt P12318 36-218).
T2 construct: also called 2aR; 2ar
T2 sequence (looked up): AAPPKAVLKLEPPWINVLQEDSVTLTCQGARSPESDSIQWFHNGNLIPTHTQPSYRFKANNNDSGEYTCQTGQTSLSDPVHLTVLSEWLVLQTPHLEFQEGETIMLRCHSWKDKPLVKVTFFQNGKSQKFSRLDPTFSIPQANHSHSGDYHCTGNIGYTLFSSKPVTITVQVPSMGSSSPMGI
The assay is described as above.
Procedure: as §1

The target of another assay is T3, FcγRIIIaV (UniProt P08637 17-208).
T3 construct: also called 3aV; 3av
Described as above.

Assay [3] addresses T4, FcγRIIaH (UniProt P12318 36-218).
T4 construct: also called 2aH; 2ah
T4 sequence (looked up): T2 sequence (looked up) with R132H
The assay is described as above.
Procedure: as §1

Assay [4] concerns the target T5, FcγRIIIaF (UniProt P08637 17-208).
T5 construct: also called 3aF; 3af
Described as above.
Procedure: as §1

Assay [5] concerns the target CD16a(158V/V) on NK92 effector cells (UniProt P08637 17-254, limits assumed). The experiment in a line: cell-based or functional assay.
For assay [6], the target named is T1, FcγRIIb. The experiment in a line: SPR, antibody captured by goat anti-IgG, FcγR injected.
Assay [7] addresses T2, FcγRIIaR. The description is as above.
Assay [8] deals with T4, FcγRIIaH. The assay is described as above.
The target in assay [9] is T5, FcγRIIIaF. Described as above.

Substitutions are numbered along the chain they refer to. Where only a bound is given, the exact number is not on record here.

Human C1q, sequence (P02745 23-245 limits assumed, chain 1 of 3): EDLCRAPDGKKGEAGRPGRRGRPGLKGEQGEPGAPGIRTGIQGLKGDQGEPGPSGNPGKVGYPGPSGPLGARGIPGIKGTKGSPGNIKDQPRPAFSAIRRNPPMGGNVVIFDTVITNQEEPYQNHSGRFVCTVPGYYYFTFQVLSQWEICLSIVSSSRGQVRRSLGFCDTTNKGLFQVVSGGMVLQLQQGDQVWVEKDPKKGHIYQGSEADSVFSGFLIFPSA
Human C1q, sequence (P02746 28-253 limits assumed, chain 2 of 3): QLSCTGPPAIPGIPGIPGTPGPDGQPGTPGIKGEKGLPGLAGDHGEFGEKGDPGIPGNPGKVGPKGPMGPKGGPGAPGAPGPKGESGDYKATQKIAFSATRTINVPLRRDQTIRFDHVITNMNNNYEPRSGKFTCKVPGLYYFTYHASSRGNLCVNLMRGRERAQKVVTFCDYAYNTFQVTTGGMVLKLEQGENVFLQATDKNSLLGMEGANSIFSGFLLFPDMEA
Human C1q, sequence (P02747 29-245 limits assumed, chain 3 of 3): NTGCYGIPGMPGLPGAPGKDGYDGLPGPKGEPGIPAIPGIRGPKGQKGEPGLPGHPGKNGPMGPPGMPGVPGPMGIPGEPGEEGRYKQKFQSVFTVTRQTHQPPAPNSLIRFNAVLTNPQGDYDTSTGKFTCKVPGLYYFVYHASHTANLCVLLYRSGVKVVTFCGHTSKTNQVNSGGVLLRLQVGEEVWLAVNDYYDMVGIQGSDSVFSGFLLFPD
Procedure for FcγRIIIaV: as §1

B1: Control WT Rituximab 1261 (antibody, human IgG1, kappa)
heavy 1: QVQLQQPGAELVKPGASVKMSCKASGYTFTSYNMHWVKQTPGRGLEWIGAIYPGNGDTSYNQKFKGKATLTADKSSSTAYMQLSSLTSEDSAVYYCARSTYYGGDWYFNVWGAGTTVTVSAASTKGPSVFPLAPSSKSTSGGTAALGCLVKDYFPEPVTVSWNSGALTSGVHTFPAVLQSSGLYSLSSVVTVPSSSLGTQTYICNVNHKPSNTKVDKKVEPKSCDKTHTCPPCPAPELLGGPSVFLFPPKPKDTLMISRTPEVTCVVVDVSHEDPEVKFNWYVDGVEVHNAKTKPREEQYNSTYRVVSVLTVLHQDWLNGKEYKCKVSNKALPAPIEKTISKAKGQPREPQVYVYPPSRDELTKNQVSLTCLVKGFYPSDIAVEWESNGQPENNYKTTPPVLDSDGSFALVSKLTVDKSRWQQGNVFSCSVMHEALHNHYTQKSLSLSPGK
heavy 2: not shown
light: QIVLSQSPAILSASPGEKVTMTCRASSSVSYIHWFQQKPGSSPKPWIYATSNLASGVPVRFSGSGSGTSYSLTISRVEAEDAATYYCQQWTSNPPTFGGGTKLEIKRTVAAPSVFIFPPSDEQLKSGTASVVCLLNNFYPREAKVQWKVDNALQSGNSQESVTEQDSKDSTYSLSSTLTLSKADYEKHKVYACEVTHQGLSSPVTKSFNRGEC
notes: also called v1261; V1261
Consider B1, for which, in the assay with Human C1q, the “CDC EC50 [nM], Daudi cells, 10% normal human serum” value (“CDC EC50 … 10% normal human serum” for short) stood at 2.9 nM. The “CDC Maximum Lysis, Daudi cells, 10% normal human serum” value with Human C1q was found to be 96 % cell lysis. In addition, the “SPR Ka ratio with respect to wild-type trastuzumab” value (from here on “SPR Ka ratio”) turned out to be 1.85 in the assay with FcγRIIb [1]; 1.47 with FcγRIIaR [2]; 1.34 with FcγRIIIaV; 1.87 with FcγRIIaH [3]; 1.36 in the assay with FcγRIIIaF [4]. Further, the “ADCC EC50 [nM], Daudi cells, NK92/CD16a(158V/V) effector cells” value (“ADCC EC50 [nM], Daudi cells” for short) in assay [5] worked out at 0.1 nM. Besides, the “ADCC Maximum Lysis, Daudi cells, NK92/CD16a(158V/V) effector cells” value in assay [5] was 66 % cell lysis.

B2: AAC9, rituximab-based asymmetric antibody construct (antibody, human IgG1, kappa)
heavy 1: B1 heavy 1 with L238D, L239E
heavy 2: B1 heavy 1 with E237K, L238R, L239R, Y355L, T370L, K396L, T398W, A409F, V411Y
light: B1 light
With B2, in the assay with Human C1q, the “CDC EC50 … 10% normal human serum” value was 47.9 nM. The “CDC Maximum Lysis, Daudi cells, 10% normal human serum” value with Human C1q was determined as 68 % cell lysis. In addition, the “SPR Ka ratio” value in the assay with FcγRIIIaV is 0.08. Besides, the binding result with FcγRIIb [6], in the assay with FcγRIIaR [7], in the assay with FcγRIIaH [8] and in the assay with FcγRIIIaF [9] was “no binding” throughout.

B3: AAC12, rituximab-based asymmetric antibody construct (antibody, human IgG1, kappa)
heavy 1: B1 heavy 1 with L238D, L239E, K326A
heavy 2: B1 heavy 1 with E237K, L238R, L239R, K326A, Y355L, T370L, K396L, T398W, A409F, V411Y
light: B1 light
As for B3, in the assay with Human C1q, the “CDC EC50 … 10% normal human serum” value is 54.6 nM. In the assay with Human C1q, the “CDC Maximum Lysis, Daudi cells, 10% normal human serum” value is 67 % cell lysis. For the same molecule, in the assay with FcγRIIIaV, the “SPR Ka ratio” value is 0.08. The binding result in the assay with FcγRIIb [6], with FcγRIIaR [7], in the assay with FcγRIIaH [8] and with FcγRIIIaF [9] was “no binding” in each case. Besides, the “ADCC EC50 [nM], Daudi cells” value in assay [5] is 23.1 nM. In addition, in assay [5], the “ADCC Maximum Lysis, Daudi cells, NK92/CD16a(158V/V) effector cells” value stood at 20 % cell lysis.

B4: AAC11, rituximab-based asymmetric antibody construct (antibody, human IgG1, kappa)
heavy 1: B1 heavy 1 with L238D, L239E, E273K
heavy 2: B1 heavy 1 with E237K, L238R, L239R, E273K, Y355L, T370L, K396L, T398W, A409F, V411Y
light: B1 light
In the case of B4, in the assay with Human C1q, the “CDC EC50 … 10% normal human serum” value turned out to be 51.6 nM. Moreover, in the assay with Human C1q, the “CDC Maximum Lysis, Daudi cells, 10% normal human serum” value is 63 % cell lysis. For the same molecule, the binding result in the assay with FcγRIIb [6], in the assay with FcγRIIaR [7], in the assay with FcγRIIaH [8] and with FcγRIIIaF [9] was “no binding” each time. The “ADCC EC50 [nM], Daudi cells” value in assay [5] was over 100 nM.
